As usually defined, the stoichiometry N is the number of molecules, sites or subunits per partner or assembly.

In assay [1] the target is hPIV3 L–P polymerase complex (L–P4) (human parainfluenza virus type 3 (hPIV3)) (UniProt P12577). As to the kind of experiment: SEC-MALS; purified L–P complex on an XBridge Protein BEH SEC column (200 Å) with a DAWN MALS detector, 0.5 ml/min, buffer B; bovine serum albumin as control. A general note: Size exclusion chromatography separates by hydrodynamic size, large species first.

The target is the same in assay [2]. Nature of the assay: SEC; analytical SEC of the purified L–P complex, Superdex 200 Increase 5/150 GL, buffer B (20 mM Tris-HCl pH 7.5, 300 mM NaCl, 1% glycerol, 6 mM MgSO4, 1 mM DTT), calibrated with standard markers.
The target in assay [3] is human parainfluenza virus type 3 (hPIV3) phosphoprotein (P) (human parainfluenza virus type 3 (hPIV3)) (UniProt P06162). As to the kind of experiment: cryo-EM structure.

On to “hPIV3 L–P polymerase complex (L–P4) (from UniProt P12577;P06162)”, for which the stoichiometry N in assay [1] and in assay [2] was 2 each time.
With “human parainfluenza virus type 3 (hPIV3) phosphoprotein (P) (from UniProt P06162 1-604) (natural protein)”, the stoichiometry N in assay [3] amounted to 4.

Values taken from PMC11009304.
